Laboratory results published in patent publication US20230303681A1 (published 2023).
Values joined by “and” are separate entries in the source; they are usually repeats but may differ in a detail not shown here. Identical values can stand only once.

B1: anti-TMEM106B antibody TM-12 (antibody, V domains shown)
VH: EVQLQQSGAELMRPGASVKLSCTASGFNIQDYYMYWVKQRPEQGLEWIGRIDPEDGDAEYAPKFQGKATMTADTSSNTAYLQLSSLTSEDTAVYYCSTRVIYDGYYRTMDCWGQGTSVTVSS
VL: DVLMTQIPLSLPVSLGDQASISCRSSQTIVHSNGNTYLEWYLKKPGQSPKLLIDKISNRFSGVPDRFSGSGSGTDFTLKISRVEAEDLGVYYCFQGSHVPYTFGGGTKLEIK
B2: anti-TMEM106B antibody TM-32 (antibody, V domains shown)
VH: EVQLQQSGAELVRPGASVRLSCIASGFNIKDYYMYWVKQRPEQGLEWIGRIDPEDGDTEYVPKFQGKATMTADTSSNTAYLQLSSLTSEDIGVYYCTTRTWDLYYAVDNWGQGTSVTVSS
VL: DVLMTQTPLSLPVSLGDQASISCRSSQNIVHSNGNTYLEWYLQKPGQSPKLLIDKVSNRFSGVPDRFSGSGSGTDFTLKISRVEAEDLGIYYCFQGSHVPFTFGSGTKLEIK
B3: anti-TMEM106B antibody TM-30 (antibody, V domains shown)
VH: QVQLQQSGPELVKPGASVKLSCKASDNTFTNYDVNWVRQRPGQGLEWIGWIYPRDGTTIYNEKFKGRATLTVDTSSSTAYMELHSLTSEDSAVFFCARTLPQAMDYWGQGTSVTVSS
VL: DVLMTQSPLSLPVSLGDQVSISCRSSQTIVHRNGNTYLEWYLQKPGQSPKLLIYKVSNRFSGVPDRFSGSGSGTDFTLKISRVEAEDLGVYYCFQGSHLPWTFGGGTKLEIK
notes: mouse IgG from hybridoma
B4: anti-TMEM106B antibody TM-16 (antibody, V domains shown)
VH: EVQLQQSGAELVRPGASVKLSCTTSGFNIKDYYMHWVKQRTEQGLEWIGRIDPEDGETKYAPEFQGKATITSDTSSNTAFLQLSSLTSEDTAVYYCASSQPFTYWGQGTLVTVSA
VL: QIVLTQSPAIMSASPGEKLTMTCSASSSLNYMYWYQQKPGSSPRLLIYDTSNLASGVPVRFSGSGSGTSYSLTISRMEAEDGATYYCQQWTSFPPTFGAGTKLELK
B5: anti-TMEM106B antibody TM-20 (antibody, V domains shown)
VH: EVQLQQSGAELVRPGASVKLSCTTSGFNIKDYYMHWVKQRTEQGLEWIGRIDPEDGETKYAPEFQGKATITSDTSSNTAFLQLSSLTSEDTAVYYCASSQPFTYWGQGTLVTVSA
VL: QIVLTQSPAIMSASPGEKLTMTCSASSSLNYMYWYQQKPGSSPRLLIYDTSNLASGVPVRFRGSGSGTSYSLTISRMEAEDGATYYCQQWTSFPPTFGAGTKLELK
B6: anti-TMEM106B antibody TM-21 (antibody, V domains shown)
VH: EVQLVESGGGLVKPGGSLKLSCAASGFTFSNYAMSWVRETPEKRLEWVAFISDGGGYIYYADNVKDRFTISRDNAKNNLYLQMRHLKSEDTAMYYCARDGGTGFTYWGQGTLVTVSV
VL: DIVMTQAAFSNPVTLGTSASISCRSSKSLLHSNGITYLFWYLQKPGQSPQLLIYQMSNLASGVPDRFSSSGSGTDFTLRISRVEAEDVGVYYCVQNLELPYTFGGGTKLEIK
B7: anti-TMEM106B antibody TM-17 (antibody, V domains shown)
VH: QVQLQQSGAELIRPGTSVKVSCKASGYAFTDYLIEWVKQRPGQGLEWIGVINPGSGGTNYNEKFKGKAKLTADKSSSTAYMQLSSLTSEDSAVYFCVRSSYGVYVAYPMDYWGQGTSVTVSS
VL: DIQMTQSPSSLSASLGERVSLTCRASQDIGSNLNWLQQEPDGTIKRLIYATSSLDSGVPKRFSGSRSGSDYSLTISSLESEDFVDYYCLQYASSPRTFGGGTKLEIK
B8: anti-TMEM106B antibody TM-44 (antibody, V domains shown)
VH: EVQLVESGGGLVKPGGSLKLSCAASGFTFSDYGMHWVRQAPEKGLEWVAYISSGSSTIYYADTVKGRFTISRDNAKNTLFLQMTSLRSEDTAMYYCARNYGSPYAMDYWGQGTSVTVSS
VL: not shown
notes: mouse IgG from hybridoma
B9: anti-TMEM106B antibody TM-10 (antibody, V domains shown)
VH: QVQLQQSGAELVKPGASVKISCKGSGYAFSSYWMNWVKQRPGKGLEWIGQIYPGDGDTNYNGKFKGKATLTADKSSTTAYIHLSSLTSEDSAVYFCARWGHYDEAMDDWGQGTSVTVSS
VL: DVVMTQTPLSLPVSLGDQASISCRSSQSLVHSNGKTYLHWYVQKPGQSPKLLIYKISNRFSGVPDRFSGSGSGTDFTLKISRVEAEDLGVYFCSQITHVPWTFGGGTKLESK
B10: anti-TMEM106B antibody TM-11 (antibody, V domains shown)
VH: QVQLKQSGPGQVQPSQSLSITCTVSGFSLSDYGVHWVRQSPGKGLEWLGVIWNNGNTDYNAAFISRLSINKDNSKSQVFFKMTSLQADDTAIYYCVRSLRPLHFDYWGQGTTVTVSS
VL: DIVMTQSPSSLTMSVGQKVTMHCKSSQSLLNSNNLQNYLAWYQQKPGQSPTLLVYFASIRESGVPDRFIGSGSGTDFTLTISSVQAEDLADYFCQQHYNTPFTFGSGTKLEIR
B11: anti-TMEM106B antibody TM-24 (antibody, V domains shown)
VH: QVQLKQSGPGQVQPSQSLSITCTVSGFSLSDYGVHWVRQSPGKGLEWLGVIWNNGNTDYNAAFISRLSINKDNSKSQVFFKMTSLQADDTAIYYCVRSLRPLHFDYWGQGTTVTVSS
VL: DIVMTQSPSSLTMSVGQKVTMNCKSSQSLLNSNNQQNYLAWYQQKPGQSPKLLVYFASIRESGVPDRFIGSGSGTDFTLTINSVQAEDLADYFCQQHYSTPFTFGSGTKLEIR
notes: mouse IgG from hybridoma

Assays:
human TMEM106B [1] = biological target: T1, human TMEM106B (human, UniProt Q9NUM4 2-274); test: FACS HEK+huTMEM, 1.0 ug/ml
T1 construct: Full-length, on transiently transfected HEK293 cells, or natively expressed on HeLa, U251 and A549 cells; also called huTMEM106B; huTMEM
Method: (§1) Purified anti-TMEM106B antibodies were evaluated for their binding affinity to various TMEM106B-expressing cell lines including HEK293 transiently transfected with human/cyno/mouse TMEM106B, as well as HeLa cells and A549 cells. Antibodies tested for this experiment were mouse IgGs purified from hybridoma supernatant. Affinity binding to cells was determined as follows. Briefly, 1x10^5 cells were aliquoted per well in 96-well round bottom plates and incubated with 50 µL of purified anti-TMEM106B antibody at various concentrations (10x dilutions starting at 10 µg/ml) in FACS buffer (PBS + 2% FBS + 1 mM EDTA). […] Sorting was performed on a iQue (Intellicyt), with sort gates drawn to exclude dead (propidium iodide +) cells. Binding data was analyzed using median fluorescent intensity (MFI) and graphed in Prism. Values presented are MFI.

GST (Pierce) = biological target: T2, GST (Pierce) (UniProt P08515 1-218 = GST, limits assumed); test: ELISA, coated GST;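 note: ELISA on plates coated with GST alone at 1-10 µg/ml, antibodies applied at 100-1000x dilution, bound antibody detected by peroxidase substrate colour after acid stop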
T2 construct: control for the GST part of the fusion protein; also called GST protein; Glutathione-S-transferase
Method: Briefly, 96-well polystyrene plates were coated with 1-10 µg/ml of recombinant GST-TMEM106B-truncated protein or GST (Pierce) in PBS either at 370 Cfor 1-4 hours or overnight at 4 °C. Coated plates were then blocked with 5% BSA for 1-hour, washed 3×150 µL in TBST (Tris-buffered saline + 0.1% Tween20), and then the antibodies were added at various dilutions (100-1000x) in PBS. After 1-hour incubation (room temperature, with shaking), the plates were washed 3x150 µL in TBST. […] After a final set of washes (3×150µL in TBST), 100 µL of peroxidase substrate was added for 1 minute; the reaction was then quenched with 2N sulfuric acid (100 µL).

human TMEM106B [2] = biological target: T1, human TMEM106B; test: FACS A549
Method: (§2) All cells were cultured in either T75 or T150 flasks. […] The enzyme was quenched by addition of fresh media, and the cells were then distributed into 96-well plates for FACS analysis.
(§3) FACS analysis was performed as follows. Each cell type was aliquoted in 96-well round bottom plates (2x10^5 cells per well), washed once with FACS buffer (PBS + 2% FBS + 1 mM EDTA), and incubated with 50 µL of hybridoma supernatant or purified antibody (10 µg/ml in FACS buffer) on ice for 1 hour. […] Following this secondary incubation, the cells were again washed 2x with ice-cold FACS buffer and resuspended in a final volume of 50 µL of FACS buffer + 0.25 µl/well propidium iodide (Fisher Scientific # BDB556463). Analysis was performed on a FACSCanto system (BD Biosciences) or iQue (Intellicyt), with sort gates drawn to exclude dead (i.e., propidium iodide positive) cells.
(§4) Data is presented as mean fluorescence intensity (MFI).

human TMEM106B [3] = biological target: T1, human TMEM106B; test: FACS HEK+huTMEM, 10 ug/ml;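 note: purified mouse IgG antibodies at 10 µg/ml bound to HEK293 cells transiently expressing human TMEM106B, measured by flow cytometry as median fluorescence intensity of propidium iodide negative live cells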
human TMEM106B [4] = biological target: T1, human TMEM106B; test: FACS, HEK293 transfectants;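 for fold over negative controls: hybridoma supernatants incubated 30 min on ice with human TMEM106B-expressing HEK293 cells, binding read as anti-mouse-APC median fluorescence on live cells, relative to secondary-antibody-only wells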;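 for fold-change over parental HEK293: flow cytometry binding of hybridoma supernatants to HEK293 cells transiently expressing human, cyno or mouse TMEM106B, read as anti-mouse-APC median fluorescence, live cells only, 30 min on ice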
Method: Initial screening of the anti-TMEM106B hybridomas was performed as follows.
For screening of the hybridoma cell culture supernatants, humanTMEM106B-transfected HEK293 cells were aliquoted in 96-well round bottom plates (2x10^5 cells per well) and incubated with 50 µL of hybridoma cell culture supernatant on ice for 30 minutes. […] Cell sorting was performed on a FACS Canto system (BD Biosciences) or iQue (Intellicyt), with sort gates drawn to exclude dead (i.e., propidium iodide-positive) cells. Median fluorescence intensity (MFI) of anti-mouse-APC MFI on TMEM106B+ HEK293 cells was calculated for each clone, and those displaying a signal of at least 2-fold over background compared to a secondary-antibody only well were taken forward for further analysis and characterization.

human TMEM106B [5] = biological target: T1, human TMEM106B; test: FACS HEK+huTMEM, 0.01 ug/ml
human TMEM106B [6] = biological target: T1, human TMEM106B; test: FACS, HEK293 transfectants; remark: listed apart in the source;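 for fold over negative controls: hybridoma supernatants incubated 30 min on ice with human TMEM106B-expressing HEK293 cells, binding read as anti-mouse-APC median fluorescence on live cells, relative to secondary-antibody-only wells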;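 for fold-change over parental HEK293: flow cytometry binding of hybridoma supernatants to HEK293 cells transiently expressing human, cyno or mouse TMEM106B, read as anti-mouse-APC median fluorescence, live cells only, 30 min on ice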
Method: (§5) For screening of the hybridoma cell culture supernatants, humanTMEM106B-transfected HEK293 cells were aliquoted in 96-well round bottom plates (2x10^5 cells per well) and incubated with 50 µL of hybridoma cell culture supernatant on ice for 30 minutes. […] Median fluorescence intensity (MFI) of anti-mouse-APC MFI on TMEM106B+ HEK293 cells was calculated for each clone, and those displaying a signal of at least 2-fold over background compared to a secondary-antibody only well were taken forward for further analysis and characterization.

mouse TMEM106B [7] = biological target: T3, mouse TMEM106B (mouse, UniProt Q80X71 2-275); test: FACS, HEK293 transfectants;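 note: flow cytometry binding of hybridoma supernatants to HEK293 cells transiently expressing human, cyno or mouse TMEM106B, read as anti-mouse-APC median fluorescence, live cells only, 30 min on ice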
T3 construct: on transiently transfected HEK293 cells, or natively expressed on mouse Neuro2a cells; also called moTMEM106B; murine TMEM106B
Method: as §5

[8] = biological target: T4, cynomolgus (cyno) TMEM106B (cynomolgus, UniProt Q9NUM4 2-274 (human entry)); test: FACS, HEK293 transfectants;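 note: flow cytometry binding of hybridoma supernatants to HEK293 cells transiently expressing human, cyno or mouse TMEM106B, read as anti-mouse-APC median fluorescence, live cells only, 30 min on ice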
T4 construct: on transiently transfected HEK293 cells
Method: as §5

human TMEM106B [9] = biological target: T1, human TMEM106B; test: FACS HEK+huTMEM, 0.1 ug/ml;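 note: flow cytometry binding of purified mouse IgG antibodies to HEK293 cells transiently expressing TMEM106B, read as median fluorescence intensity with propidium iodide positive dead cells gated out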
Method: as §1

human TMEM106B [10] = biological target: T1, human TMEM106B; test: FACS A549, 10 ug/ml
mouse TMEM106B [11] = biological target: T3, mouse TMEM106B; test: FACS Neuro2a;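 note: flow cytometry of cells stained with antibody or hybridoma supernatant (purified antibody at 10 µg/ml) for 1 h on ice, propidium iodide–positive dead cells gated out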
Method: as §2, §3, §4

human TMEM106B [12] = biological target: T1, human TMEM106B; test: FACS U251;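 note: flow cytometry of cells exposed to antibody (purified at 10 µg/mL, or hybridoma supernatant) for 1 h on ice, with propidium iodide-positive dead cells gated out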
human TMEM106B [13] = biological target: T1, human TMEM106B; test: FACS A549, 1 ug/ml
Method: as §1

human TMEM106B [14] = biological target: T1, human TMEM106B; test: FACS HeLa;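 note: flow cytometry of cells incubated with hybridoma supernatant or purified antibody at 10 µg/ml for 1 h on ice, propidium iodide–positive dead cells gated out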
Method: as §2, §3, §4

[15] = biological target: T5, GST-fusion human TMEM106B truncated (human); test: array SPR, Ab immobilised;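 note: antibodies amine-coupled on an MX-96 chip, antigen flowed at 500 nM top concentration in 5-fold serial dilutions, GST alone run as nonspecific-binding control, duplicate measurements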
T5 construct: also called GST-TMEM106B-truncated protein; GST-TMEM106B (truncated)
Method: Binding kinetic characterization of the purified antibodies was performed by Carterra using a proprietary array SPR instrument (MX-96) as follows. Briefly, antibodies were prepared by diluting to 5 µg/ml in 10 mM Acetate, pH 4.5 (Carterra), at 150 µL/well and then made an additional dilution at 1:10 from there by titrating 11 µl into 100 µL. […] The chip was activated with 18 mM EDC (Sigma Bioxtra) and 4.5 mM S-NHS (Thermo Fisher) diluted in 100 mM MES, pH 5.5, for 7 minutes, and then antibodies were coupled for 10 minutes at 45 µL/minute. After coupling, the chip was returned to the MX-96 and quenched for 7 minutes using 1 M Ethanolamine pH 8.5 (Carterra).
Printed antibodies were profiled for their ability to bind GST-TMEM106B (truncated) protein (described above). Briefly, GST-TMEM106B (truncated) antigen was diluted to 18 µg/ml (500 nM of 36 kDa fusion protein) by mixing 2.7 µL of 2.0 mg/ml antigen into 298 µL Running buffer (HBS-EP+, Teknova with 1 mg/ml BSA, Sigma), and titrated 50 µl into 200 µl for 5-fold serial dilutions. In addition, binding to GST (Pierce) was assayed under the same conditions to determine the extent of any nonspecific binding of the anti-TMEM106B antibodies to GST portion of the TMEM106B-GST fusion protein. Duplicate measurements for each anti-TMEM106B antibody were taken to ensure reproducibility.

Binder	MFI (human TMEM106B [1])	binding result (GST (Pierce))	MFI (human TMEM106B [2])	MFI (human TMEM106B [3])	fold over negative controls (human TMEM106B [4])	MFI (human TMEM106B [5])	fold-change over parental HEK293 (human TMEM106B [6])	fold-change over parental HEK293 (mouse TMEM106B [7])	fold-change over parental HEK293 [8]	MFI (human TMEM106B [9])	MFI (human TMEM106B [10])	MFI (mouse TMEM106B [11])	MFI (human TMEM106B [12])	MFI (human TMEM106B [13])	MFI (human TMEM106B [14])	kon [15]	koff [15]	Kd [15]
B1	77800	no binding	1940	75300	> 2 fold	3340	25.9 fold	32.7 fold	44.1 fold	19700	4950	3040	1330	3150	2660	21000 M⁻¹ s⁻¹ and 29000 M⁻¹ s⁻¹		
B2	63300	no binding		61100	> 2 fold	4100				20300	6100			3930		29000 M⁻¹ s⁻¹ and 40000 M⁻¹ s⁻¹	8.6e-05 s⁻¹ and 3.5e-05 s⁻¹	
B3	63500			61500	> 2 fold	3070				18400	4040			3030				
B4	2140	no binding	605	5980	> 2 fold	351	8.3 fold	1.42 fold	17.6 fold	680	557	392	292	409	548			
B5		no binding																
B6	69400	no binding	1030	69400	> 2 fold	2350	29.8 fold	46.5 fold	48.9 fold	15600	4230	706	672	2030	1200	18000 M⁻¹ s⁻¹ and 17000 M⁻¹ s⁻¹	5.2e-05 s⁻¹ and 7.1e-05 s⁻¹	2.9 nM and 4.1 nM
B7	2620	no binding	953	3960	> 2 fold	1150	12.6 fold	6.42 fold	14.3 fold	1910	425	385	305	379	437	29000 M⁻¹ s⁻¹ and 35000 M⁻¹ s⁻¹	0.00063 s⁻¹ and 0.00097 s⁻¹	22 nM and 28 nM
B8	337		392	512		300				309	466	202	522	404	168			
B9	44400	no binding	823	36500	> 2 fold	3360	37.1 fold	45.9 fold	65.9 fold	21000	1090	604	328	663	596	32000 M⁻¹ s⁻¹ and 28000 M⁻¹ s⁻¹	0.00054 s⁻¹ and 0.0006 s⁻¹	17 nM and 22 nM
B10	54600	no binding	1340	57900	> 2 fold	4280	9.96 fold	18.3 fold	23.7 fold	16200	5580	1040	866	2870	1870	24000 M⁻¹ s⁻¹ and 27000 M⁻¹ s⁻¹	5.2e-05 s⁻¹ and 5.7e-05 s⁻¹	2.1 nM
B11	64500			66300	> 2 fold	3620				22000	4480			2880				
